Target: SMARCD1 (human) (UniProt Q96GM5)
Experiment: HA-bait purification from HEK-293T nuclear extract, mass spectrometry, peptide count

SMARCD1 (human), sequence (Q96GM5 whole entry): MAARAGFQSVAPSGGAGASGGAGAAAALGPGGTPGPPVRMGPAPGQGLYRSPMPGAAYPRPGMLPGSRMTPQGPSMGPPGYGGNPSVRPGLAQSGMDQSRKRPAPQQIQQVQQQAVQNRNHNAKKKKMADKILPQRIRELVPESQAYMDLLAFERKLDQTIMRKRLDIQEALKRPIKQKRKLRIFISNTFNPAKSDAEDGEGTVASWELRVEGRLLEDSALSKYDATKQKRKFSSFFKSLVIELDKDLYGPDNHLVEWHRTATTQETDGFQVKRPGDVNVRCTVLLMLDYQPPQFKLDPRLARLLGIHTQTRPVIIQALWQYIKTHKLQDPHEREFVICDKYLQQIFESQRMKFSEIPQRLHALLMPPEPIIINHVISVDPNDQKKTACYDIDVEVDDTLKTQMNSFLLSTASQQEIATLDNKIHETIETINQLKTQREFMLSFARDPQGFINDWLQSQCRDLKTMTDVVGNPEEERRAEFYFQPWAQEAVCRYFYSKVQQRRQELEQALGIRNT

- Total: 73 peptides
- Unique: 44 peptides
B1: HA-BRD7 (protein, human)
chain: MYPYDVPDYAMGKKHKKHKSDKHLYEEYVEKPLKLVLKVGGNEVTELSTGSSGHDSSLFEDKNDHDKHKDRKRKKRKKGEKQIPGEEKGRKRRRVKEDKKKRDRDRVENEAEKDLQCHAPVRLDLPPEKPLTSSLAKQEEVEQTPLQEALNQLMRQLQRKDPSAFFSFPVTDFIAPGYSMIIKHPMDFSTMKEKIKNNDYQSIEELKDNFKLMCTNAMIYNKPETIYYKAAKKLLHSGMKILSQERIQSLKQSIDFMADLQKTRKQKDGTDTSQSGEDGGCWQREREDSGDAEAHAFKSPSKENKKKDKDMLEDKFKSNNLEREQEQLDRIVKESGGKLTRRLVNSQCEFERRKPDGTTTLGLLHPVDPIVGEPGYCPVRLGMTTGRLQSGVNTLQGFKEDKRNKVTPVLYLNYGPYSSYAPHYDSTFANISKDDSDLIYSTYGEDSDLPSDFSIHEFLATCQDYPYVMADSLLDVLTKGGHSRTLQEMEMSLPEDEGHTRTLDTAKEMEITEVEPPGRLDSSTQDRLIALKAVTNFGVPVEVFDSEEAEIFQKKLDETTRLLRELQEAQNERLSTRPPPNMICLLGPSYREMHLAEQVTNNLKELAQQVTPGDIVSTYGVRKAMGISIPSPVMENNFVDLTEDTEEPKKTDVAECGPGGS

Source: patent US20210388040A1
